{"source": "paper PMC3668541", "about": "“Production of recombinant 1-deoxy-D-xylulose-5-phosphate synthase from Plasmodium vivax in Escherichia coli^” (FEBS Open Bio, 2013)", "key": {"[1]": {"molecular_target": "Plasmodium vivax 1-deoxy-D-xylulose-5-phosphate synthase catalytic core (DXScc) (Plasmodium vivax)", "assay": "SEC; gel filtration chromatography under non-denaturing conditions of DXScc after Ni-NTA affinity chromatography; buffer and column not shown (Supplementary material)"}, "[2]": {"molecular_target": "T1, P. vivax DXScc (DXS SH-2, DXS catalytic core) (Plasmodium vivax, UniProt A5K817)", "T1 construct": "gene PVX_082790; catalytic core, N-terminal first 210 residues (signal and transit peptide) deleted; codon-optimized gene in E. coli; theoretical monomer 103,921 Da; homodimer", "T1 sequence (A5K817 211-1111)": "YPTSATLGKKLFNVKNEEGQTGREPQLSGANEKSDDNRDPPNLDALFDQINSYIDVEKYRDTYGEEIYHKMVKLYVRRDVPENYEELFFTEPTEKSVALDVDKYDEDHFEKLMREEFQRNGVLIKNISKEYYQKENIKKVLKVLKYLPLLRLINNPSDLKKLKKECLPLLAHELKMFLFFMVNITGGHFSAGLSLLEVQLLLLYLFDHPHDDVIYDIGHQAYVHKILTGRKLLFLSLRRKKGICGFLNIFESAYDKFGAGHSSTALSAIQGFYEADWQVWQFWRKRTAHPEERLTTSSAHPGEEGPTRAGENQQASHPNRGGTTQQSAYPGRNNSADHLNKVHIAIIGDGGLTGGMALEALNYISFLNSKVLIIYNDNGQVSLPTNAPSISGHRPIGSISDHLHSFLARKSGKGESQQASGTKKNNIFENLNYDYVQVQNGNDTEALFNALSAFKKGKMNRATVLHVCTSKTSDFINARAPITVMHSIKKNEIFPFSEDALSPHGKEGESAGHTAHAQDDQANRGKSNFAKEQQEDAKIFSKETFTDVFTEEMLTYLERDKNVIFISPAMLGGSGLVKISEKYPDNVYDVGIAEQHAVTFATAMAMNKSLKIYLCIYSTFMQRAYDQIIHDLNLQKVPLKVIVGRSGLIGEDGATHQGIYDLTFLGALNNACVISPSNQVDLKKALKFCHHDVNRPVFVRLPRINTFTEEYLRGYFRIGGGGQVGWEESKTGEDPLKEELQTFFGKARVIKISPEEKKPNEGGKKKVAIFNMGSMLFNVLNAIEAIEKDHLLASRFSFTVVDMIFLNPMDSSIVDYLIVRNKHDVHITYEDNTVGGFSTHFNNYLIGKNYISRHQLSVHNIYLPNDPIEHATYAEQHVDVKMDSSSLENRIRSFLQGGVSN", "assay": "DXS–DXR coupled assay", "format": "biochemical"}, "[3]": {"substrate": "O=C[C@H](O)COP(=O)(O)O", "assay": "DXS–DXR coupled assay", "format": "biochemical, Plasmodium vivax", "conditions": "apparent; 4.0 mM pyruvate", "from_the_text": "(§1) DXS–DXR coupled assay on P. vivax DXScc (DXS SH-2, DXS catalytic core)"}, "[4]": {"substrate": "CC(=O)C(=O)O", "assay": "DXS–DXR coupled assay", "format": "biochemical, Plasmodium vivax", "conditions": "apparent; 0.1 mM GAP", "from_the_text": "as §1"}}}
{"molecule": "Plasmodium vivax 1-deoxy-D-xylulose-5-phosphate synthase catalytic core (DXScc) (enzyme)", "values": [{"measurement": "stoichiometry N", "setting": "[1]", "value": 2}]}
{"molecule": "O=C(O)C(=O)CF", "note": "[β-fluoropyruvate]", "values": [{"measurement": "Ki", "setting": "[2]", "value": "200 ± 100", "unit": "µM"}]}
{"molecule": "P. vivax DXScc (DXS SH-2, DXS catalytic core) (Plasmodium vivax Sal-1) (protein, catalytic core, N-terminal first 210 residues (signal and transit peptide) deleted; codon-optimized gene in E. coli; theoretical monomer 103,921 Da; homodimer) YPTSATLGKKLFNVKNEEGQTGREPQLSGANEKSDDNRDPPNLDALFDQINSYIDVEKYRDTYGEEIYHKMVKLYVRRDVPENYEELFFTEPTEKSVALDVDKYDEDHFEKLMREEFQRNGVLIKNISKEYYQKENIKKVLKVLKYLPLLRLINNPSDLKKLKKECLPLLAHELKMFLFFMVNITGGHFSAGLSLLEVQLLLLYLFDHPHDDVIYDIGHQAYVHKILTGRKLLFLSLRRKKGICGFLNIFESAYDKFGAGHSSTALSAIQGFYEADWQVWQFWRKRTAHPEERLTTSSAHPGEEGPTRAGENQQASHPNRGGTTQQSAYPGRNNSADHLNKVHIAIIGDGGLTGGMALEALNYISFLNSKVLIIYNDNGQVSLPTNAPSISGHRPIGSISDHLHSFLARKSGKGESQQASGTKKNNIFENLNYDYVQVQNGNDTEALFNALSAFKKGKMNRATVLHVCTSKTSDFINARAPITVMHSIKKNEIFPFSEDALSPHGKEGESAGHTAHAQDDQANRGKSNFAKEQQEDAKIFSKETFTDVFTEEMLTYLERDKNVIFISPAMLGGSGLVKISEKYPDNVYDVGIAEQHAVTFATAMAMNKSLKIYLCIYSTFMQRAYDQIIHDLNLQKVPLKVIVGRSGLIGEDGATHQGIYDLTFLGALNNACVISPSNQVDLKKALKFCHHDVNRPVFVRLPRINTFTEEYLRGYFRIGGGGQVGWEESKTGEDPLKEELQTFFGKARVIKISPEEKKPNEGGKKKVAIFNMGSMLFNVLNAIEAIEKDHLLASRFSFTVVDMIFLNPMDSSIVDYLIVRNKHDVHITYEDNTVGGFSTHFNNYLIGKNYISRHQLSVHNIYLPNDPIEHATYAEQHVDVKMDSSSLENRIRSFLQGGVSN", "values": [{"measurement": "Km", "setting": "[3]", "value": "19 ± 4", "unit": "µM"}, {"measurement": "kcat", "setting": "[3]", "value": "11 ± 0.9", "unit": "s⁻¹"}, {"measurement": "kcat/Km", "setting": "[3]", "value": 570000, "unit": "M⁻¹ s⁻¹"}, {"measurement": "Km", "setting": "[4]", "value": "870 ± 110", "unit": "µM"}, {"measurement": "kcat", "setting": "[4]", "value": "9.5 ± 0.5", "unit": "s⁻¹"}, {"measurement": "kcat/Km", "setting": "[4]", "value": 11000, "unit": "M⁻¹ s⁻¹"}]}
